The record followed here is patent US20150017154A1 (NEXVET AUSTRALIA, published 2015).

The target of test [1] is T1, mouse NGF (mouse, UniProt P01139 122-241, limits assumed).
T1 construct: Coated on ELISA plates; also called murine NGF
The test can be described thus: ELISA, CHO supernatant on coated NGF, anti-canine IgG-HRP. The method, then: Combinations of caninised heavy and light chain cDNAs were transfected into CHO cells, the supernatants harvested and reacted in ELISA format with either canine or murine NGF. Following incubation and wash steps, the bound canine antibody was detected by reactivity with a goat-anti canine IgG specific polyclonal antibody linked to horseradish peroxidase (HRP) and developed using TMB. The optical density of the resulting product was measured at 450 nm and compared with that from mock empty vector transfected supernatant (denoted as “Mock” in FIG. 1).
In general terms: An ELISA detects its analyte on a solid surface through an enzyme-linked reagent.

The target in test [2] is T2, complement C1q (from human serum) (human, UniProt P02745 23-245; P02746 28-253; P02747 29-245).
T2 construct: Native C1q in human serum diluted 1/100
Description: C1q ELISA: antibody captured on mouse NGF-coated plate, human serum, anti-C1q-HRP. The method, then:
CHO cell transfectant supernatants from Example 2 were incubated with plates coated with […] NGF to capture the antibodies. The plates were washed and then incubated with human serum and bound complement C1q was measured by binding of anti-human C1q polyclonal antibody HRP and developed as above.
Plates were coated with 100 μl/well of 5 μg/ml mouse NGF and blocked with 5% BSA/PBS. Coated wells were incubated for 1 hour at room temperature with cell culture supernatants, containing recombinant caninised anti-NGF IgG, diluted in PBS/1% BSA (100 μl/well). The plates were washed and incubated for 1 hour at room temperature with 100 μl/well of human serum diluted 1/100 in veronal buffered saline containing 0.5 mM MgCl₂, 2 mM CaCl₂, 0.05% Tween-20, 0.1% gelatin and 0.5% BSA. After washing, plates were incubated with 100 μl of a 1/800 dilution of sheep anti-C1q-HRP (Serotec) in PBS/1% BSA. After washing, plates were developed by the addition of 100 μl TMB substrate (Thermo Scientific). Development was stopped by the addition of 100 μl of 2N H₂SO₄ and absorbance read at 450 nm.

In test [3] the target is T1, mouse NGF. Description: binding ELISA to mouse NGF, CHO supernatant dilutions.
Test [4] addresses T1, mouse NGF. Description: binding ELISA to mouse NGF, CHO supernatants undiluted and 1/100. The method, then:
A comparison of the binding of N-glycosylated and aglycosylated variants of anti-canine-NGF monoclonal antibodies to NGF with HCB and HCC heavy chain isotypes was carried out. Expression vectors encoding the light and heavy chain pairs described by SEQ ID NO:5 and SEQ ID NO:7 (HCB), SEQ ID NO:5 and SEQ ID NO:16 (HCB*), SEQ ID NO:5 and SEQ ID NO:8 (HCC), or SEQ ID NO:5 and SEQ ID NO:17 (HCC*) were co-transfected into CHO cells and the supernatants compared by binding ELISA to mouse NGF.

In test [5] the target is T2, complement C1q (from human serum). The test can be described thus: C1q ELISA: antibody captured on NGF-coated plate, human serum, anti-C1q-HRP.
For test [6], the target named is NGF (species not stated, TF-1 cell proliferation assay). The test can be described thus: cell-based or functional assay.

Substitutions are numbered along the chain they refer to.

T1 sequence (P01139 122-241 limits assumed): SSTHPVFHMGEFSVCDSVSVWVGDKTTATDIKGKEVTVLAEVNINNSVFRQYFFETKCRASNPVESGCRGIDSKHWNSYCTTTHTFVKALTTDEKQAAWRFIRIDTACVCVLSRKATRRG
T2 sequence (P02745 23-245 limits assumed, chain 1 of 3): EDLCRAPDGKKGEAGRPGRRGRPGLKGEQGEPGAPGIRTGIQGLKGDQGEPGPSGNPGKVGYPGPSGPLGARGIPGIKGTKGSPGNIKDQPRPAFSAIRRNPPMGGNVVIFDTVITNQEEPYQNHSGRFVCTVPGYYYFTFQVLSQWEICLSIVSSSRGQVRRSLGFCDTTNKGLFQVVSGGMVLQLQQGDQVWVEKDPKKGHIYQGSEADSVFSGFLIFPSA
T2 sequence (P02746 28-253 limits assumed, chain 2 of 3): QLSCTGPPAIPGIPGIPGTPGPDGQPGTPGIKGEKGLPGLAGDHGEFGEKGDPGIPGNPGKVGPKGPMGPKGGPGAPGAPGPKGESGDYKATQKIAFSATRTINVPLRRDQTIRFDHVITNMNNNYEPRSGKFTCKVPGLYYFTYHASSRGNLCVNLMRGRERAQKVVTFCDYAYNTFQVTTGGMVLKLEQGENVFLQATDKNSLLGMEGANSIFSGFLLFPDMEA
T2 sequence (P02747 29-245 limits assumed, chain 3 of 3): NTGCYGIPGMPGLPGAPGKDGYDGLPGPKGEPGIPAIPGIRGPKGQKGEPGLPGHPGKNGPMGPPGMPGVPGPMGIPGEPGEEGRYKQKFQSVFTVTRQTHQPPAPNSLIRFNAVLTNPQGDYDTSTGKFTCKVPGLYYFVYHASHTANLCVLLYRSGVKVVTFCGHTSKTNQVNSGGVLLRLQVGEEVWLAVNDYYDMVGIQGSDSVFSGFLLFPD

B1: caninised anti-NGF antibody comprising the caN-HCA heavy chain and caN-kLC light chain (antibody)
heavy: EVQLVESGGDLVNPGGTLTLSCVVSGFSLTNNNVNWVRQALGRGLEWVGGVWAGGATDYNSALKSRLTITRDTSKSTVFLKMHSLQSEDTATYYCARDGGYSSSTLYAMDAWGQGTLVTVSSASTTAPSVFPLAPSCGSTSGSTVALACLVSGYFPEPVTVSWNSGSLTSGVHTFPSVLQSSGLHSLSSMVTVPSSRWPSETFTCNVVHPASNTKVDKPVFNECRCTDTPPCPVPEPLGGPSVLIFPPKPKDILRITRTPEVTCVVLDLGREDPEVQISWFVDGKEVHTAKTQSREQQFNGTYRVVSVLPIEHQDWLTGKEFKCRVNHIDLPSPIERTISKARGRAHKPSVYVLPPSPKELSSSDTVSITCLIKDFYPPDIDVEWQSNGQQEPERKHRMTPPQLDEDGSYFLYSKLSVDKSRWQQGDPFTCAVMHETLQNHYTDLSLSHSPGK
light: DIQMTQSPASLSLSQEEKVTITCRASEDIYNALAWYQQKPGQAPKLLIYNTDTLHTGVPSRFSGSGSGTEYSLTINSLESEDVAVYFCQHYFHYPRTFGAGTKVELKRNDAQPAVYLFQPSPDQLHTGSASVVCLLNSFYPKDINVKWKVDGVIQDTGIQESVTEQDKDSTYSLSSTLTMSSTEYLSHELYSCEITHKSLPSTLIKSFQRSECQRVD
notes: Tested as CHO cell transfectant supernatant; also called A-HCA; caN-HCA+caN-kLC1
On to B1, for which the binding result is recorded as “binds” in the test with mouse NGF [1] and “no binding” in test [2].

B2: caninised anti-NGF antibody comprising the caN-HCB heavy chain and the caN-kLC light chain (antibody)
heavy: EVQLVESGGDLVNPGGTLTLSCVVSGFSLTNNNVNWVRQALGRGLEWVGGVWAGGATDYNSALKSRLTITRDTSKSTVFLKMHSLQSEDTATYYCARDGGYSSSTLYAMDAWGQGTLVTVSSASTTAPSVFPLAPSCGSTSGSTVALACLVSGYFPEPVTVSWNSGSLTSGVHTFPSVLQSSGLYSLSSMVTVPSSRWPSETFTCNVAHPASKTKVDKPVPKRENGRVPRPPDCPKCPAPEMLGGPSVFIFPPKPKDTLLIARTPEVTCVVVDLDPEDPEVQISWFVDGKQMQTAKTQPREEQFNGTYRVVSVLPIGHQDWLKGKQFTCKVNNKALPSPIERTISKARGQAHQPSVYVLPPSREELSKNTVSLTCLIKDFYPPDIDVEWQSNGQQEPESKYRTTPPQLDEDGSYFLYSKLSVDKSRWQRGDTFICAVMHEALHNHYTQESLSHSPGK
light: B1 light
notes: Tested as CHO cell transfectant supernatant; also called caN-HCB+caN-kLC1
On to B2, for which the binding result (in test [2]; in the test with mouse NGF [3]) was “binds” each time.

B3: caninised anti-NGF antibody comprising the caN-HCD heavy chain and caN-kLC light chain (antibody)
heavy: EVQLVESGGDLVNPGGTLTLSCVVSGFSLTNNNVNWVRQALGRGLEWVGGVWAGGATDYNSALKSRLTITRDTSKSTVFLKMHSLQSEDTATYYCARDGGYSSSTLYAMDAWGQGTLVTVSSASTTAPSVFPLAPSCGSTSGSTVALACLVSGYFPEPVTVSWNSGSLTSGVHTFPSVLQSSGLYSLSSTVTVPSSRWPSETFTCNVVHPASNTKVDKPVPKESTCKCISPCPVPESLGGPSVFIFPPKPKDILRITRTPEITCVVLDLGREDPEVQISWFVDGKEVHTAKTQPREQQFNSTYRVVSVLPIEHQDWLTGKEFKCRVNHIGLPSPIERTISKARGQAHQPSVYVLPPSPKELSSSDTVTLTCLIKDFYPPEIDVEWQSNGQPEPESKYHTTAPQLDEDGSYFLYSKLSVDKSRWQQGDTFTCAVMHEALQNHYTDLSLSHSPGK
light: B1 light
notes: also called D-HCD; caninised HCD type antibody
With B3, the binding result in test [2] is “no binding”.

B4: caninised anti-NGF antibody comprising the caN-HCC heavy chain and a caN-kLC light chain (antibody)
heavy: EVQLVESGGDLVNPGGTLTLSCVVSGFSLTNNNVNWVRQALGRGLEWVGGVWAGGATDYNSALKSRLTITRDTSKSTVFLKMHSLQSEDTATYYCARDGGYSSSTLYAMDAWGQGTLVTVSSASTTAPSVFPLAPSCGSQSGSTVALACLVSGYIPEPVTVSWNSVSLTSGVHTFPSVLQSSGLYSLSSMVTVPSSRWPSETFTCNVAHPATNTKVDKPVAKECECKCNCNNCPCPGCGLLGGPSVFIFPPKPKDILVTARTPTVTCVVVDLDPENPEVQISWFVDSKQVQTANTQPREEQSNGTYRVVSVLPIGHQDWLSGKQFKCKVNNKALPSPIEEIISKTPGQAHQPNVYVLPPSRDEMSKNTVTLTCLVKDFFPPEIDVEWQSNGQQEPESKYRMTPPQLDEDGSYFLYSKLSVDKSRWQRGDTFICAVMHEALHNHYTQISLSHSPGK
light: B1 light
notes: Tested as CHO cell transfectant supernatant; also called C-HCC; caN-HCC+caN-kLC1
In the case of B4, the binding result (with mouse NGF [4]; in test [2]) was “binds” each time.

B5: aglycosylated variant anti-canine-NGF monoclonal antibody HCC* (SEQ ID NO:5 and SEQ ID NO:17) (antibody)
heavy: B4 heavy with N303A
light: B1 light
notes: Tested as CHO cell transfectant supernatant
Turning to B5, the binding result (with mouse NGF [4]; in test [5]) was “binds” in each case.

B6: aglycosylated variant anti-canine-NGF monoclonal antibody HCB* (SEQ ID NO:5 and SEQ ID NO:16) (antibody)
heavy: B2 heavy with N305A
light: B1 light
notes: as for B5
Consider B6, for which the binding result with mouse NGF [4] is listed as “binds”; in test [5], “no binding”.

B7: variant caninised anti-NGF antibody (caN2) with light chain SEQ ID NO:10 (VL2 and canine kappa constant domain) and heavy chain SEQ ID NO:11 (HCA variant-VH2 … (antibody)
heavy: B1 heavy with K81Q, Q86R
light: B1 light with Q3V, Y71F, N76S, S80P, F87Y
notes: also called anti-canine NGF monoclonal antibody (canine HCA type heavy chain)
With B7, in test [6], the “IC50 in the TF-1 NGF neutralisation assay” value amounted to 0.013 nM. Also, the binding result in test [5] is “no binding (tested: 4, 2 and 1 ug/ml)”; with mouse NGF [3], “binds”.
